Literature values as cited in publication PMC11924945.

Biological target: CD47 (Homo sapiens) (UniProt Q08722)
Sequence (Q08722 19-323): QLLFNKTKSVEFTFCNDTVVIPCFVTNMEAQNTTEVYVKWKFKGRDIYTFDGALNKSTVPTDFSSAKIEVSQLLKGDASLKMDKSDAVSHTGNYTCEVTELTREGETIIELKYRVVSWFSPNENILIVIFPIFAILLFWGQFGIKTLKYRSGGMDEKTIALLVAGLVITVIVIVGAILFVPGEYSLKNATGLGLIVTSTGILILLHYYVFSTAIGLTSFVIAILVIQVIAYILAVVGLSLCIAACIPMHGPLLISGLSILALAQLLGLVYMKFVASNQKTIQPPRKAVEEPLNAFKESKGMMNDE

Chain of SIRPα allele 2 (P78324 31-373): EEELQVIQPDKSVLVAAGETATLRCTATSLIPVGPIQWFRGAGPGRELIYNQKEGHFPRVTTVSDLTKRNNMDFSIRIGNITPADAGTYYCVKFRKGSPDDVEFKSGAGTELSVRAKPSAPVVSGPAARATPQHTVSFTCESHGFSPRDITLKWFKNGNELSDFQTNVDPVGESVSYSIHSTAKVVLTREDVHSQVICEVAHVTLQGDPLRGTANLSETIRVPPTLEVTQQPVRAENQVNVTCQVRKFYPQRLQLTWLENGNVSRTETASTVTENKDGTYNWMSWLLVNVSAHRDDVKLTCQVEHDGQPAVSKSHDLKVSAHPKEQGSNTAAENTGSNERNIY

Q: Which Kd does the source give for SIRPα allele 2 (from UniProt P78324) here?
A: 1000 nM
